Test results taken from patent US20080050375A1 (Eli Lilly, published 2008).

T1: human TGF-beta 3 (RDI, Cat # RDI-1036/CF) (human, UniProt P10600 301-412)
T1 construct: Bought recombinant protein; also called TGF-β3; TGF-p3
T1 sequence (looked up): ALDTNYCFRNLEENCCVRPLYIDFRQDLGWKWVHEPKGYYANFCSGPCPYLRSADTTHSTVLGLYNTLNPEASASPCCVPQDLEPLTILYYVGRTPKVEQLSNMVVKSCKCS


How the values were obtained:
[1] = target: T1, human TGF-beta 3 (RDI, Cat # …); assay: Biacore SPR, mAb captured on Protein A, 5 nM ligand injected; stoichiometry from captured signals
Description: (§1) BIAcore methods are used to determine the ability of invention mAb compositions to bind other entities, specifically the latent form of TGF-beta 1 or TGF-beta 3. All measurements are performed at room temperature. Samples are dissolved in HBS-EP buffer (150 mM sodium chloride, 3 mM EDTA, 0.01% (w/v) surfactant P-20, and 10 mM HEPES, pH7.4). Recombinant Protein A is immobilized on all four flow cells of a CM4 sensor chip at a level of 400-450 response units (RUs) using an amine coupling kit.
(§2) Binding is evaluated using multiple analytical cycles. Each cycle is performed at a flow rate of 100 μL/minute consisting of the following steps: injection of 15 μL of an antibody binding composition at 1 μg/mL, injection of 250 μL of either 5 nM TGF-beta 1, 5 nM latent TGF-beta 1, or 5 nM TGF-beta 3 followed by a short delay (5 min) for dissociation, and regeneration using two injections of 50 μL of 10 mM glycine hydrochloride, pH1.5. The amount of signal after capturing first the Mab, and then the ligand, are determined using the instrument control software. Since the signal is proportional to the mass of protein captured, the stoichiometry of the captured ligand is readily calculable (Table 4).

[2] = target: T2, human TGF-beta 1 (R&D Systems, Cat # 240-B/CF) (human, UniProt P01137 279-390); assay: as above
T2 construct: They match K95 and residues 58-61 of mature numbering; also called TGF-β1; mature TGF-β1
Description: as §1, §2

latent TGF-beta 1 = target: T3, latent TGF-beta 1 (UniProt P01137 30-390, limits assumed); assay: as above
T3 construct: Latent complex (pro-peptide with mature TGF-beta 1); also called Latent TGF-β1; latent form of TGF-beta 1
Description: as §1, §2

[3] = target: T1, human TGF-beta 3 (RDI, Cat # …); assay: Biacore SPR, equilibrium fit, mAb captured on Protein A, TGF-β3 injected
Description: (§3) Affinities of binding composition mAbs for TGF-p3 are determined using BIAcore methods. All measurements are performed at room temperature. Samples are dissolved in HBS-EP buffer (150 mM sodium chloride, 3 mM EDTA, 0.01% (w/v) surfactant P-20, and 10 mM HEPES, pH7.4). Recombinant Protein A is immobilized on four flow cells of a CM4 sensor chip at a level of 400-450 response units (RUs) using an amine coupling kit. Binding is evaluated over multiple analytical cycles. Each cycle is performed at a flow rate of 100 μL/minute consisting of the following steps: injection of 15 μL of an antibody binding composition at 0.5 μg/mL, injection of 250 μL of TGF-β3 (starting at 5 nM and using two-fold serial dilutions to 0.13 nM for each cycle, with two injections for each concentration) followed by a short (5 minutes) delay for dissociation, and regeneration using two injections of 50VL of 10 mM glycine hydrochloride, pH1.5.
(§4) Affinities are determined based upon the equilibrium signal as reached at varying TGF-β3 concentrations by measuring the average signal during the last 10 seconds of the TGF-β3 injections, and then fitting the resulting signals at all of the TGF-β3 concentrations to a simple binding equilibrium model in SCRUBBER (Center for Biomolecular Interaction Analysis, Univ. of Utah). Model data determined for tested human mab composition of the invention of Kd and specificity calculated by dividing the Kd for TGF-β3 binding by the Kd for TGF-β1 binding (herein) is shown below in Table 5.

[4] = target: T2, human TGF-beta 1 (R&D Systems, Cat # …); assay: Biacore SPR, calculated koff/kon
Description: (§5) Alternate methods of measuring kinetic constants are known, for example: affinity of a binding composition for human TGF-beta 1 (R&D Systems, Cat #240-B/CF), TGF-beta 2 (RDI, Cat # RDI-1035) and TGF-beta 3 (RDI, Cat # RDI-1036/CF) is measured using a BlAcore® 2000 instrument. The BIAcore® utilizes the optical properties of surface plasmon resonance to detect alteration in protein concentration of interacting molecules within a dextran biosensor matrix. Except as noted, all reagents and materials are purchased from BIAcore® AB (Upsala, Sweden). All measurements are performed at room temperature. Samples are dissolved in HBS-EP buffer (150 mM sodium chloride, 3 mM EDTA, 0.01% (w/v) surfactant P-20, and 10 mM HEPES, pH7.4). Recombinant Protein A is immobilized on all four flow cells of a CM4 sensor chip at a level of 400-450 response units (RUs) using an amine coupling kit.
(§6) Binding is evaluated using multiple analytical cycles. Each cycle is performed at a flow rate of 50 μL/minute and consists of the following steps: injection of 12 μL of an antibody binding composition at 0.5 μg/mL, injection of 250 μL of TGF-beta 1 (starting at 5 nM and using two-fold serial dilutions to 0.13 nM for each cycle, with two injections for each concentration) followed by either a short (5 minutes) or long (120 minutes) delay for dissociation, and regeneration using two injections of 50VL of 10 mM glycine hydrochloride, pH1.5. Association and dissociation rates for each cycle are determined by fitting of the biosensor data using to a simple association model using ClampXP (Center for Biomolecular Interaction Analysis, Univ. of Utah) to extract the kₒₙ and koff rate constants; the equilibrium binding constant Kd is calculated using the relationship Kd=koff/kₒₙ. Model data for invention compositions are in Table 3 shown below.

[5] = target: T2, human TGF-beta 1 (R&D Systems, Cat # …); assay: cell-based or functional assay
[6] = target: T2, human TGF-beta 1 (R&D Systems, Cat # …); assay: Biacore SPR, mAb captured on Protein A, TGF-beta 1 injected
Description: as §5, §6

[7] = target: T1, human TGF-beta 3 (RDI, Cat # …); assay: ratio of Biacore Kd for TGF-β3 to Kd for TGF-β1
Description: as §3, §4

[8] = target: T2, human TGF-beta 1 (R&D Systems, Cat # …); assay: calculated from KinExA Kd and kon
Description: (§7) A KinExA 3000 instrument (Sapidyne Inst. Inc.) is used to measure binding kinetics. Briefly, an antigen is covalently coupled to alzactone beads and the binding of a free Fab binding composition of the invention to the beads is detected on the instrument. […] After the incubation, free Fab in each equilibrated sample is determined on the KinExA 3000 according to the manufacturer's instructions. Kd values are determined using KinExA 3000 software.
(§8) To measure kₒₙ, individual Fabs at 2 nM are mixed with 0-240 nM of antigen using the injection method according to the manufacturer's instructions, and the unbound Fab is detected. The resulting data is used to calculate the kₒₙ with KinExA 3000 software. The koff is calculated by using the formula Kd=koff/kₒₙ.

[9] = target: T2, human TGF-beta 1 (R&D Systems, Cat # …); assay: KinExA 3000, Fab in solution, antigen on beads
Description: as §7, §8

[10] = target: T2, human TGF-beta 1 (R&D Systems, Cat # …); assay: KinExA 3000, equilibrium, Fab in solution
Description: as §7

T2 sequence (P01137 279-390 limits assumed): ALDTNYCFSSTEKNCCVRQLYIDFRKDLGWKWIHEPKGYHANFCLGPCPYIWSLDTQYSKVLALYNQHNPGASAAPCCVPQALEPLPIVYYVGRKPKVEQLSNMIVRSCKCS
T3 sequence (P01137 30-390 limits assumed): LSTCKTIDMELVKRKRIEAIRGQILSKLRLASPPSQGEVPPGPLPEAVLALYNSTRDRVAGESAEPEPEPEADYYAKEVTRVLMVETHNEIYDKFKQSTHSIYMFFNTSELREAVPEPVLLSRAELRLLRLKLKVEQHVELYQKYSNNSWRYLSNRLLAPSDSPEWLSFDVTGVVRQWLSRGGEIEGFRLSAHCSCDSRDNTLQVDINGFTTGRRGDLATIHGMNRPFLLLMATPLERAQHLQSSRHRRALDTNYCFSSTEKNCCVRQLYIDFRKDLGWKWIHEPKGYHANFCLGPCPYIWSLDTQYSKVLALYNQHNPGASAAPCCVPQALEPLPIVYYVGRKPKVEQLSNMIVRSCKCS

Stoichiometry of ligand binding [1]	Stoichiometry of ligand binding [2]	Stoichiometry of ligand binding (latent TGF-beta 1)	Kd [3] [pM]	Kd [4] [pM]	Fold Improvement in IC50 relative to mAb2471 (HT-2 cell proliferation assay) [5] [fold]	koff [6] [s⁻¹]	kon [6] [M⁻¹ s⁻¹]	Specificity (Kd, β3/Kd, β1) [7] [fold]	koff [8] [s⁻¹]	kon [9] [M⁻¹ s⁻¹]	Kd [10] [pM]	Binder
0.16	1.29	0.05	4900	< 0.5	107	< 6e-06	1.3e+07	9800	–	–	–	mAb 21D1 (antibody, human IgG4 S228P, kappa, V domains shown, Full-length IgG4 antibody; also called LA307-21D1) VH: QVQLVQSGAEVKKPGASVKVSCKASGYTFTDYNIHWVRQAPGQGLEWMGYIYPYDGETGYNQKFKSRVTMTTDTSTSTAYMELRSLRSDDTAVYYCARGYRWFAYWGQGTLVTVSS VL: DIQMTQSPSSLSASVGDRVTITCRASSSVPYMHWFQQKPGKAPKSLIYATSNPAYGVPSRFSGSGSGTDFTLTISSLQPEDFATYYCQQWDLNPPAFGQGTKLEIKR
–	–	–	–	–	–	–	–	–	5.1e-06	4.2e+06	1.2	Fab DM4 (Fab, V domains shown, Fab with human constant regions (kappa light chain)) VH: QVQLVQSGAEVKKPGASVKVSCKASGYDFTDYNIHWVRQAPGQGLEWMGYIYPYDGETGYNQKFKSRVTMTTDTSTSTAYMELRSLRSDDTAVYYCARGYRWLAYWGQGTLVTVSS VL: DIQMTQSPSSLSASVGDRVTITCRASSSVSYMHWYQQKPGKAPKPLIYATSNLAYGVPSRFSGSGSGTDFTLTISSLQPEDFATYYCQQWDLNPPAFGQGTKLEIK
–	–	–	–	–	–	–	–	–	3.4e-06	4e+06	0.9	Fab 21D1 (Fab, V domains shown, Fab with human constant regions (kappa light chain) from M13 expression vectors) VH: QVQLVQSGAEVKKPGASVKVSCKASGYTFTDYNIHWVRQAPGQGLEWMGYIYPYDGETGYNQKFKSRVTMTTDTSTSTAYMELRSLRSDDTAVYYCARGYRWFAYWGQGTLVTVSS VL: DIQMTQSPSSLSASVGDRVTITCRASSSVPYMHWFQQKPGKAPKSLIYATSNPAYGVPSRFSGSGSGTDFTLTISSLQPEDFATYYCQQWDLNPPAFGQGTKLEIK
–	–	–	–	–	–	–	–	–	1.9e-05	4.8e+06	4	Fab 23A3 (Fab, V domains shown, Fab with human constant regions (kappa light chain)) VH: QVQLVQSGAEVKKPGASVKVSCKASGYDFTDYNMVWVRQAPGQGLEWMGSIYPYDGETGYNQKFKSRVTMTTDTSTSTAYMELRSLRSDDTAVYYCARGYRAFEYWGQGTLVTVSS VL: DIQMTQSPSSLSASVGDRVTITCRASSSVPYMHWYQQKPGKAPKLLIYATSNPAYGVPSRFSGSGSGTDFTLTISSLQPEDFATYYCQQWDLNPPAFGQGTKLEIK
1.26	1.63	0.07	660	0.8	234	1e-05	1.9e+07	1050	–	–	–	mAb 23A3 (antibody, IgG4, V domains shown) VH: QVQLVQSGAEVKKPGASVKVSCKASGYDFTDYNMVWVRQAPGQGLEWMGSIYPYDGETGYNQKFKSRVTMTTDTSTSTAYMELRSLRSDDTAVYYCARGYRAFEYWGQGTLVTVSS VL: DIQMTQSPSSLSASVGDRVTITCRASSSVPYMHWYQQKPGKAPKLLIYATSNPAYGVPSRFSGSGSGTDFTLTISSLQPEDFATYYCQQWDLNPPAFGQGTKLEIK
–	–	–	–	–	–	–	–	–	2.3e-06	4.5e+06	0.5	Fab DM7 (Fab, V domains shown, Fab with human constant regions (kappa light chain)) VH: QVQLVQSGAEVKKPGASVKVSCKASGYDFTDYNMHWVRQAPGQGLEWMGYIYPYDGETGYNQKFKSRVTMTTDTSTSTAYMELRSLRSDDTAVYYCARGYRWLYYWGQGTLVTVSS VL: DIQMTQSPSSLSASVGDRVTITCRASSSVSYMHWYQQKPGKAPKPLIYATSNLAKGVPSRFSGSGSGTDFTLTISSLQPEDFATYYCQQWDLNPPAFGQGTKLEIK
–	1.55	0.03	530	0.9	391	1.4e-05	1.6e+07	621	–	–	–	mAb DM4 (antibody, human IgG4 S228P, kappa, V domains shown, Full-length IgG4 antibody; also called LA307-DM4) VH: QVQLVQSGAEVKKPGASVKVSCKASGYDFTDYNIHWVRQAPGQGLEWMGYIYPYDGETGYNQKFKSRVTMTTDTSTSTAYMELRSLRSDDTAVYYCARGYRWLAYWGQGTLVTVSS VL: DIQMTQSPSSLSASVGDRVTITCRASSSVSYMHWYQQKPGKAPKPLIYATSNLAYGVPSRFSGSGSGTDFTLTISSLQPEDFATYYCQQWDLNPPAFGQGTKLEIKR
